Experimental data from patent US20220403392 (published 2022).
Positions count from the first letter of the chain named.

B1: NU 3' + 5' fiber (mixed)
DNA 1: TCCCTTTAGGGAATGACCCTGAAGTTCATCTGCACCACCGAGGGAAATCCCTTTTTCGCCTAGGTTGGGTAGGGTGGTGGCG
DNA 2: CGCCTAGGTTGGGTAGGGTGGTGGCGTTTTTCCCTAAAGGGATGACCCTGAAGTTCATCTGCACCACCGAAGGGATTTCCCT
DNA 3: CGGTGGTGCAGATGAACTTCAGGGTCA
B2: RA 3' + 3' fiber (mixed)
DNA 1: TCCCTTTAGGGAATGACCCTGAAGTTCATCTGCACCACCGAGGGAAATCCCTTTTTGGTTGGTGTGGTTGGTGGTTGGTGTGGTTGG
DNA 2: B2 DNA 1 with C2T, T5C, T7A, G9A, A12G, G42A, A45G, A47T, C49T, T52C
DNA 3: CGGTGGTGCAGATGAACTTCAGGGTCA
B3: RA 5'3' + 5'3' fiber (mixed)
DNA 1: GGTTGGTGTGGTTGGTGGTTGGTGTGGTTGGTTTTCCCTTTAGGGAATGACCCTGAAGTTCATCTGCACCACCGAGGGAAATCCCTTTTTGGTTGGTGTGGTTGGTGGTTGGTGTGGTTGG
DNA 2: B3 DNA 1 with C36T, T39C, T41A, G43A, A46G, G76A, A79G, A81T, C83T, T86C
DNA 3: CGGTGGTGCAGATGAACTTCAGGGTCA
B4: RA 5' + 5' fiber (mixed)
DNA 1: GGTTGGTGTGGTTGGTGGTTGGTGTGGTTGGTTTTCCCTTTAGGGAATGACCCTGAAGTTCATCTGCACCACCGAGGGAAATCCCTT
DNA 2: B4 DNA 1 with C36T, T39C, T41A, G43A, A46G, G76A, A79G, A81T, C83T, T86C
DNA 3: CGGTGGTGCAGATGAACTTCAGGGTCA
B5: RA 5' + 3' fiber (mixed)
DNA 1: B4 DNA 1
DNA 2: B2 DNA 1 with C2T, T5C, T7A, G9A, A12G, G42A, A45G, A47T, C49T, T52C
DNA 3: CGGTGGTGCAGATGAACTTCAGGGTCA

Target: thrombin (Homo sapiens, UniProt P00734;P00734 P00734:328-363,P00734:364-622)
Experiment: inhibition; TT, plasma alone 16.3 s; about 0.5 uM in human plasma, 37 C

Row | Binder | activity
1 | B1 | > 60 s
2 | B2 | > 60 s
3 | B3 | > 60 s
4 | B4 | > 60 s
5 | B5 | > 60 s
